Data: paper PMC314469, “Protein Interaction Networks by Proteome Peptide Scanning” (PLoS Biology, 2004)

T1: Rvs167 SH3 (RV167_YEAST), P39743
T1 chain: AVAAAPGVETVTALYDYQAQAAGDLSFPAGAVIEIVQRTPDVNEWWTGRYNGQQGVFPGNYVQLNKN

T2: Myo5 SH3 (MYO5_YEAST), Q04439
T2 chain: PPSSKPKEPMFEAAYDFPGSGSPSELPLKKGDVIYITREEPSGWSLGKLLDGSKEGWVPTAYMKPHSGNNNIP

T3: Yhr016c SH3 (YSC84_YEAST), P32793
T3 chain: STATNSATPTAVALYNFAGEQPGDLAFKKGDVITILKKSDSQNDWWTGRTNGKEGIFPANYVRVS

T4: Boi1 SH3 (BOI1_YEAST), P38041
T4 chain: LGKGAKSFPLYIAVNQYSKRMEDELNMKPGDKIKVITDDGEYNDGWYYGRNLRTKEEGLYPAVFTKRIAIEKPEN

T5: Boi2 SH3 (BOI2_YEAST), P39969
T5 chain: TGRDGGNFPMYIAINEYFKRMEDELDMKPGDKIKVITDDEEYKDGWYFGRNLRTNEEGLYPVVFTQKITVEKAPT

T6: Yfr024 SH3 (LSB3_YEAST), P43603
T6 chain: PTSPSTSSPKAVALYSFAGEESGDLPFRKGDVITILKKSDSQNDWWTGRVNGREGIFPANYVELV


Tests used:
Assay in all cases: SPOT array
[1] = molecular target: Sho1 SH3 (SHO1_YEAST), P40073
[2] = molecular target: T1, Rvs167 SH3 (RV167_YEAST), P39743
[3] = molecular target: T2, Myo5 SH3 (MYO5_YEAST), Q04439
[4] = molecular target: T3, Yhr016c SH3 (YSC84_YEAST), P32793
[5] = molecular target: T4, Boi1 SH3 (BOI1_YEAST), P38041
[6] = molecular target: T5, Boi2 SH3 (BOI2_YEAST), P39969
[7] = molecular target: T6, Yfr024 SH3 (LSB3_YEAST), P43603

Sequence of Sho1 SH3 (SHO1_YEAST), P40073 (P40073 295-366): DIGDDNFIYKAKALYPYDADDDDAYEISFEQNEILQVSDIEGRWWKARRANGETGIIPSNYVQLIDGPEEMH

normalised SPOT signal, Boehringer light units (BLU); mean over the file's lines of this peptide [1]	normalised SPOT signal, Boehringer light units (BLU); mean over the file's lines of this peptide [2]	normalised SPOT signal, Boehringer light units (BLU); mean over the file's lines of this peptide [3]	normalised SPOT signal, Boehringer light units (BLU); mean over the file's lines of this peptide [4]	normalised SPOT signal, Boehringer light units (BLU); mean over the file's lines of this peptide [5]	normalised SPOT signal, Boehringer light units (BLU); mean over the file's lines of this peptide [6]	normalised SPOT signal, Boehringer light units (BLU); mean over the file's lines of this peptide [7]	Binder
35.5	54.9	233	22.5	119	10.4	133	IDKSKLSPRFPELK [YDR237W 35-48]
18.4	124	193	57.9	182	28.1	1010	IGSPRHAPSRPDSI [YOL138C 1121-1134]
47.7	14.9	116	1.9	16.4	22	2.6	IESLREIPYGPDFD [YML105C 200-213]
223	1150	17700	1780	1330	416	8250	IKMSRSPPRPPSLK [YDR243C 237-250]
57.1	29.5	888	87.4	136	39.8	489	IAKLKRKPVVPRLK [YPR056W 317-330]
5680	457	340	1500	152	16.2	1840	ILFERILPILPVES [YOL081W 29-42]
100	240	322	55.5	327	149	348	ILKNRMNPEKPYEL [YBL034C 850-863]
55.1	163	98.7	88.1	46.7	120	2680	IESFRERPLEPPRK [YDR448W 138-151]
65	283	158	43.3	256	34.5	555	IAVTRSIPRGPDKN [YOR322C 264-277]
9.5	80	93.2	40.5	53.6	71.3	82.5	ILEGKFEPVIPREW [YCL047C 191-204]
40.3	9.1	139	0	50.1	3.3	34.3	IDIPRTNPHIPLYQ [YOR070C 339-352]
6.7	26	244	12.5	74.3	58.9	42.9	IGKSKSAPPIPEDT [YJL095W 1392-1405]
99.1	138	603	35.3	1780	19.9	354	ILERKNIPRQPAIR [YDL034W 13-26]
276	85.2	237	58.6	132	9.4	304	IKYFKKFPKDPLAM [YPR189W 306-319]
25.9	26.4	175	22.6	128	26.2	69.6	ILAVKKNPQSPMYT [YER126C 197-210]
115	373	157	180	60.7	1150	674	IFVTRYLPYFPIMY [YBL066C 354-367]
